Laboratory results taken from patent publication US20230038638A1, “COMPLEMENT FACTOR I-RELATED COMPOSITIONS AND METHODS” (published 2023).

Experiments:
human C4b (human) = biological target: T1, human C4b (human) (UniProt P0C0L5)
T1 sequence: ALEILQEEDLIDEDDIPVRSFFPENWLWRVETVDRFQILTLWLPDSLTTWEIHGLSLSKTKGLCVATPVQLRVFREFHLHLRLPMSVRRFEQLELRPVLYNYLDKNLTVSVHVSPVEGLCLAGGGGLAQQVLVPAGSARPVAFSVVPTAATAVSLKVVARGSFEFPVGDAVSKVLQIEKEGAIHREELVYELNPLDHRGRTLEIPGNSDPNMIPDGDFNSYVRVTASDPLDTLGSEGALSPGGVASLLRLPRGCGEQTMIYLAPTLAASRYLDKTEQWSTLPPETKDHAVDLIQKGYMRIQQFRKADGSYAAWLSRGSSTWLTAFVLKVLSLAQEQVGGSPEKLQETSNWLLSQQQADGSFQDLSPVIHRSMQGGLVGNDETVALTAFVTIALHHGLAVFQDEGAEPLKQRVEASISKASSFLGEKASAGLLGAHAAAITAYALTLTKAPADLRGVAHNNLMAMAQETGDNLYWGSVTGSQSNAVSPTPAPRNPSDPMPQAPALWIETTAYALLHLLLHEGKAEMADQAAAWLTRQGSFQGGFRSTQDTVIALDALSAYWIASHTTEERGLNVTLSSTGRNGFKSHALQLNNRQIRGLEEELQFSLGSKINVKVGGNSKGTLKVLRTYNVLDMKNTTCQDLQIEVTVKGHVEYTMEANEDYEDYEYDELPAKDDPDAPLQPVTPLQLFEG

[1] = biological target: soluble human C3b (human) (UniProt P01024)

Δ(K1-P305); GGSSGG (SEQ ID NO: 6); fH_CCP1-4 (enzyme), sequence (chain): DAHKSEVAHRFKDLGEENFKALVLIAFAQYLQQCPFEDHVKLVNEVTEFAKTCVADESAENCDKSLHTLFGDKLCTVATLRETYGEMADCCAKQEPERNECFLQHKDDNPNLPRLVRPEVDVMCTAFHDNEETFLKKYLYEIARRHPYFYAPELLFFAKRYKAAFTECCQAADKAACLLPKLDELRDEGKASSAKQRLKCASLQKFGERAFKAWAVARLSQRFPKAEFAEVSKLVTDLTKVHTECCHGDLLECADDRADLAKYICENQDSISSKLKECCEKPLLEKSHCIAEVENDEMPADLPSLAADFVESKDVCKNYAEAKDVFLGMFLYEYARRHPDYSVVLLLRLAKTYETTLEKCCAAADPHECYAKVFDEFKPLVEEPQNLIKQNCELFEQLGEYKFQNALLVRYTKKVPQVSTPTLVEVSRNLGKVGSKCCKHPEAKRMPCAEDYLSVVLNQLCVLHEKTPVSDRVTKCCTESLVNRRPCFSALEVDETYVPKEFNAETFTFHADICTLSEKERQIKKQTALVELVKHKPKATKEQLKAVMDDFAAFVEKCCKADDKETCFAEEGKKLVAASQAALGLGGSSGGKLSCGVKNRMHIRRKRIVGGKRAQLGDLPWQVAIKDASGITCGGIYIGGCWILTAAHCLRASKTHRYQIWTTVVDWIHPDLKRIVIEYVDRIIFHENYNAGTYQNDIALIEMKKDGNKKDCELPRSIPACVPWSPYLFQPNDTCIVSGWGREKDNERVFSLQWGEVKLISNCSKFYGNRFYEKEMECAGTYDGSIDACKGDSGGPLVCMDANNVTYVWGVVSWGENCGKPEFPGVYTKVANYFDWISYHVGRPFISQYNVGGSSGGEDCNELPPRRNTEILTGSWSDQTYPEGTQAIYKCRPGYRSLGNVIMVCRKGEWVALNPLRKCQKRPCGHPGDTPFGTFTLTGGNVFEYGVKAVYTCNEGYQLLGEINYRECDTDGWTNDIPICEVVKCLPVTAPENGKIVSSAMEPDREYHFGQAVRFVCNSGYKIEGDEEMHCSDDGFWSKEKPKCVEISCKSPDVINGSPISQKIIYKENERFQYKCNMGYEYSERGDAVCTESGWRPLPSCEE

Row | Substance | C4b Screen Ref Fold (fold vs CFI-HSA wild type) (human C4b (human)) | iC3b Screen Ref Fold (fold vs CFI-HSA wild type) [1] | also measured
1 | CFI-HSA variant Y408L; E457G; N531G; P535G; WT; GGSSGG (SEQ ID NO: 6); CR1(ccp15-17) (from UniProt P17927) (enzyme) |  |  | C4b Screen Ref Fold (fold of CFI-HSA wild type) (human C4b (human)): 3.14; iC3b Screen Ref Fold (fold of CFI-HSA wild type) [1]: 0.05
2 | CFI-HSA variant Y408L; P535G; N422K (enzyme) |  |  | C4b Screen Ref Fold (fold of CFI-HSA wild type) (human C4b (human)): 0.17; iC3b Screen Ref Fold (fold of CFI-HSA wild type) [1]: 1.03
3 | WT; GGSSGG (SEQ ID NO: 6); CCP_1-4; GGSS(6) + G; compstatin (enzyme) | 0.25 | 0.11 | 
4 | CFI-HSA S343G (enzyme) | 0.92 | 1.32 | 
5 | CFI-HSA Y553Q (enzyme) | 0.77 | 1.09 | 
6 | CFI-HSA variant E457G; P535G; N422K (enzyme) |  |  | C4b Screen Ref Fold (fold of CFI-HSA wild type) (human C4b (human)): 1.87; iC3b Screen Ref Fold (fold of CFI-HSA wild type) [1]: 1.43
7 | CFI-HSA Y408L; E457G; E461Q; R462K; N531G; R557A (enzyme) | 3.22 | 1.29 | 
8 | CFI-HSA Y553V (enzyme) | 0.37 | 1.1 | 
9 | CFI-HSA variant Y408L; N531G; E457G; E461Q; R462K; F464Y; S507A (enzyme) | 0.01 | 0 | 
10 | CFI-HSA variant S552G; V565I (enzyme) |  |  | C4b Screen Ref Fold (fold of CFI-HSA wild type) (human C4b (human)): 1.23; iC3b Screen Ref Fold (fold of CFI-HSA wild type) [1]: 1.58
11 | CFI-HSA Y408L; E457G; E461Q; R462K; N531G; R557K (enzyme) | 4.01 | 1.14 | 
12 | CFI-HSA Y408L; E457G; E530Y (enzyme) | 2 | 1.12 | 
13 | CFI-HSA R365A (enzyme) | 0.56 | 0.5 | 
14 | CFI-HSA D549Y (enzyme) | 0.08 | 0.42 | 
15 | CFI-HSA variant E457G; P535G; WT; GGSSGG (SEQ ID NO: 6); CR1(ccp15-17) (from UniProt P17927) (enzyme) |  |  | C4b Screen Ref Fold (fold of CFI-HSA wild type) (human C4b (human)): 3.89; iC3b Screen Ref Fold (fold of CFI-HSA wild type) [1]: 0.07
16 | CFI-HSA variant N531G; P535G; N422K (enzyme) |  |  | C4b Screen Ref Fold (fold of CFI-HSA wild type) (human C4b (human)): 2.85; iC3b Screen Ref Fold (fold of CFI-HSA wild type) [1]: 1.96
17 | CFI-HSA K368E (enzyme) | 0.06 | 0.2 | 
18 | CFI-HSA variant S552G; F559L (enzyme) |  |  | C4b Screen Ref Fold (fold of CFI-HSA wild type) (human C4b (human)): 1.41; iC3b Screen Ref Fold (fold of CFI-HSA wild type) [1]: 0.79
19 | CFI-HSA Y553K (enzyme) | 1.49 | 1.12 | 
20 | CFI-HSA Y553H (enzyme) | 1.56 | 1.11 | 
21 | CFI-HSA R557M (enzyme) | 2.48 | 0.16 | 
22 | CFI-HSA Y408L; E457G; R462K; F464Y; N531G; GGSSGG (SEQ ID NO: 6); CR1 (ccp15-17) (from UniProt P17927) (enzyme) | 2.74 | 0.02 | 
23 | CFI-HSA variant Δ(K1-P305); N531G (enzyme) | 0.02 | 0.03 | 
24 | CFI-HSA variant Δ(V565) (enzyme) |  |  | C4b Screen Ref Fold (fold relative to CFI-HSA wild type) (human C4b (human)): 1.57; iC3b Screen Ref Fold (fold relative to CFI-HSA wild type) [1]: 0.54
25 | CFI-HSA N531G; E457G; E461Q; R557A (enzyme) | 4.46 | 0.93 | 

Row | Substance | C4b Screen Ref Fold (fold vs CFI-HSA wild type) (human C4b (human)) | iC3b Screen Ref Fold (fold vs CFI-HSA wild type) [1] | also measured
26 | CFI-HSA variant D506V (enzyme) | 0.06 | 0 | 
27 | CFI-HSA Y408L; N531G; R557A (enzyme) | 3.77 | 0.77 | 
28 | CFI-HSA Y408L; D425R; E530Y (enzyme) | 1.05 | 1.95 | 
29 | CFI-HSA R557E (enzyme) | 1.15 | -0.02 | 
30 | CFI-HSA R365D (enzyme) | 0.02 | 0.03 | 
31 | CFI-HSA R557S (enzyme) | 1.11 | 0.1 | 
32 | Δ(K1-P305); GGSSGG (SEQ ID NO: 6); fH_CCP1-4 (enzyme) | 0.15 | 0.04 | 
33 | CFI-HSA variant Y408A (enzyme) | 0.09 | 0.71 | 
34 | CFI-HSA N531G; E457G; E461Q; R557K (enzyme) | 4.69 | 1.81 | 
35 | CFI-HSA K424G (enzyme) | 0.32 | 1.44 | 
36 | CFI-HSA variant Y553H; F559L; V565I; P558S (enzyme) |  |  | C4b Screen Ref Fold (fold of CFI-HSA wild type) (human C4b (human)): 1.58; iC3b Screen Ref Fold (fold of CFI-HSA wild type) [1]: 0.59
37 | CFI-HSA R557V (enzyme) | 2.23 | 0.21 | 
38 | CFI-HSA E457G; N531G; E461Q; R462K; F464Y; E530Y; GGSSGG (SEQ ID NO: 6); CR1(ccp15-17) (from UniProt P17927) (enzyme) | 2.87 | 0.01 | 
39 | CFI-HSA K424Q (enzyme) | 0.47 | 1.27 | 
40 | CFI-HSA variant Y408L; N531G; P535G (enzyme) |  |  | C4b Screen Ref Fold (fold of CFI-HSA wild type) (human C4b (human)): 0.89; iC3b Screen Ref Fold (fold of CFI-HSA wild type) [1]: 0.97
41 | CFI-HSA variant P535K (enzyme) | 1.02 | 1.61 | 
42 | CFI-HSA D549F (enzyme) | 0.05 | 0.22 | 
43 | CFI-HSA K424T (enzyme) | 0.03 | 0.13 | 
44 | CFI-HSA E457G; N531G; E461Q; R462K; F464Y; E530Y (enzyme) | 5.7 | 1.83 | 
45 | CFI-HSA T377G; N531G (enzyme) | 4.53 | 2.34 | 
46 | CFI-HSA variant E457G; N531G; P535G; P558S (enzyme) |  |  | C4b Screen Ref Fold (fold of CFI-HSA wild type) (human C4b (human)): 1.56; iC3b Screen Ref Fold (fold of CFI-HSA wild type) [1]: 0.87
47 | CFI-HSA R365W (enzyme) | 0.24 | 0.89 | 
48 | CFI-HSA variant Y408L; P535G; K534Q (enzyme) |  |  | C4b Screen Ref Fold (fold of CFI-HSA wild type) (human C4b (human)): 0.33; iC3b Screen Ref Fold (fold of CFI-HSA wild type) [1]: 0.26
49 | CFI-HSA variant K14E (enzyme) |  |  | C4b Screen Ref Fold (fold of CFI-HSA wild type) (human C4b (human)): 1.35; iC3b Screen Ref Fold (fold of CFI-HSA wild type) [1]: 1.74
50 | CFI-HSA F537G (enzyme) | 0.03 | 0.37 | 
